The values that follow are results of earlier work, collected in publication PMC7339208.

Broadly, the Kd is the constant that tells how readily two partners part at equilibrium.

One data set concerns the target IL-2 (Homo sapiens) (UniProt P60568).
The target of another data set is IL-15 (Homo sapiens) (UniProt P40933).
UniProt P40933, sequence (P40933 49-162): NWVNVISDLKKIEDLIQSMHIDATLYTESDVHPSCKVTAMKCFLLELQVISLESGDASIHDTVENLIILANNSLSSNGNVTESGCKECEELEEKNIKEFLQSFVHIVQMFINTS

UniProt P60568, sequence (P60568 21-153): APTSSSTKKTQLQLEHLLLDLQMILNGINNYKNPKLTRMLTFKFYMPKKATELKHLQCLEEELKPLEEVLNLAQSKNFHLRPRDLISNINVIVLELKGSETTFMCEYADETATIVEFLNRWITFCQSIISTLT

As to IL-2Rα (from UniProt P01589), the Kd with IL-2 (Homo sapiens) was 10 nM.

IL-15Rα (from UniProt Q13261): in the data set with IL-15 (Homo sapiens), the Kd is 0.1 nM.
